These results are taken from PMC9632566 (Nature Communications, 2022).

For this assay, the target named is NA of A/California/04/2009 (A/H1N1pdm09) (Influenza A virus A/California/04/2009 …, strain). Briefly: ELISA. The note with it: one partner purified. For orientation: An ELISA detects its analyte on a solid surface through an enzyme-linked reagent.

B1: DA05A30 (antibody, V domains shown)
VH: EVQLVESGAEVKKPGESLKISCQGSGYRFSSHWIVWVRQMPGKGLEWMGIIYPGDSDTRYSPSFQGQVTISTDKSNAYLQWSSLKASDTGMYYCARHPQPYGSGYYGEFDYWGQGTLVTVSS
VL: DIQMTQPPSVSGAPGQRVTISCTGSSSNIGAGYDVYWYQQFPGTAPKLLIYANDNRPSGVPDRFSGSKSGTSASLVITGLQAEDEADYYCQSYDSSLSGSVVFGGGTKLTVL
For the molecule B1, the binding result was “binds”.
